In the Human Domainome abundance scans (Beltran et al. 2025):
± gives the uncertainty stated by the source.

Assay: abundance fitness (aPCA) (normalised: wild type 0, dead -1); higher = more abundant; growth selection in yeast, the domain comes from the species named
Conditions: Homo sapiens

| Substance | abundance fitness |
| --- | --- |
| DnaJ homolog subfamily B member 1 R25A, P25685 | 0.011 ± 0.079 |
| DnaJ homolog subfamily B member 1 R25C, P25685 | -0.22 ± 0.14 |
| DnaJ homolog subfamily B member 1 R25D, P25685 | -0.15 ± 0.13 |
| DnaJ homolog subfamily B member 1 R25E, P25685 | 0.173 ± 0.082 |
| DnaJ homolog subfamily B member 1 R25F, P25685 | -0.199 ± 0.12 |
| DnaJ homolog subfamily B member 1 R25G, P25685 | -0.007 ± 0.12 |
| DnaJ homolog subfamily B member 1 R25H, P25685 | -0.047 ± 0.11 |
| DnaJ homolog subfamily B member 1 R25I, P25685 | 0.008 ± 0.13 |
| DnaJ homolog subfamily B member 1 R25K, P25685 | -0.022 ± 0.057 |
| DnaJ homolog subfamily B member 1 R25M, P25685 | -0.078 ± 0.12 |
| DnaJ homolog subfamily B member 1 R25N, P25685 | -0.144 ± 0.29 |
| DnaJ homolog subfamily B member 1 R25P, P25685 | -0.462 ± 0.12 |
| DnaJ homolog subfamily B member 1 R25S, P25685 | 0.018 ± 0.076 |
| DnaJ homolog subfamily B member 1 R25T, P25685 | -0.181 ± 0.11 |
| DnaJ homolog subfamily B member 1 R25V, P25685 | 0.003 ± 0.062 |
| DnaJ homolog subfamily B member 1 R25W, P25685 | -0.116 ± 0.092 |
| DnaJ homolog subfamily B member 1 R26A, P25685 | 0.056 ± 0.18 |
| DnaJ homolog subfamily B member 1 R26C, P25685 | 0.064 ± 0.11 |
| DnaJ homolog subfamily B member 1 R26D, P25685 | 0.327 ± 0.25 |
| DnaJ homolog subfamily B member 1 R26F, P25685 | -0.032 ± 0.094 |
| DnaJ homolog subfamily B member 1 R26G, P25685 | -0.117 ± 0.094 |
| DnaJ homolog subfamily B member 1 R26H, P25685 | 0.163 ± 0.11 |
| DnaJ homolog subfamily B member 1 R26I, P25685 | 0.071 ± 0.16 |
| DnaJ homolog subfamily B member 1 R26K, P25685 | 0.052 ± 0.18 |
| DnaJ homolog subfamily B member 1 R26L, P25685 | 0.068 ± 0.075 |
| DnaJ homolog subfamily B member 1 R26M, P25685 | -0.121 ± 0.13 |

| Substance | abundance fitness |
| --- | --- |
| DnaJ homolog subfamily B member 1 R26N, P25685 | 0.102 ± 0.17 |
| DnaJ homolog subfamily B member 1 R26P, P25685 | -0.628 ± 0.1 |
| DnaJ homolog subfamily B member 1 R26Q, P25685 | -0.019 ± 0.22 |
| DnaJ homolog subfamily B member 1 R26S, P25685 | 0.064 ± 0.068 |
| DnaJ homolog subfamily B member 1 R26T, P25685 | -0.128 ± 0.12 |
| DnaJ homolog subfamily B member 1 R26V, P25685 | 0.03 ± 0.15 |
| DnaJ homolog subfamily B member 1 R26W, P25685 | -0.023 ± 0.081 |
| DnaJ homolog subfamily B member 1 R26Y, P25685 | -0.344 ± 0.19 |
| DnaJ homolog subfamily B member 1 R30A, P25685 | 0.033 ± 0.072 |
| DnaJ homolog subfamily B member 1 R30C, P25685 | 0.042 ± 0.16 |
| DnaJ homolog subfamily B member 1 R30E, P25685 | 0.047 ± 0.24 |
| DnaJ homolog subfamily B member 1 R30F, P25685 | -0.024 ± 0.089 |
| DnaJ homolog subfamily B member 1 R30G, P25685 | -0.056 ± 0.11 |
| DnaJ homolog subfamily B member 1 R30H, P25685 | -0.125 ± 0.088 |
| DnaJ homolog subfamily B member 1 R30I, P25685 | -0.036 ± 0.095 |
| DnaJ homolog subfamily B member 1 R30K, P25685 | -0.086 ± 0.098 |
| DnaJ homolog subfamily B member 1 R30L, P25685 | 0.081 ± 0.067 |
| DnaJ homolog subfamily B member 1 R30M, P25685 | 0.104 ± 0.089 |
| DnaJ homolog subfamily B member 1 R30N, P25685 | 0.014 ± 0.1 |
| DnaJ homolog subfamily B member 1 R30Q, P25685 | 0.087 ± 0.11 |
| DnaJ homolog subfamily B member 1 R30S, P25685 | -0.024 ± 0.073 |
| DnaJ homolog subfamily B member 1 R30T, P25685 | -0.026 ± 0.1 |
| DnaJ homolog subfamily B member 1 R30Y, P25685 | 0.131 ± 0.087 |
| DnaJ homolog subfamily B member 1 R59A, P25685 | -0.051 ± 0.086 |
| DnaJ homolog subfamily B member 1 R59C, P25685 | -0.128 ± 0.14 |
| DnaJ homolog subfamily B member 1 R59D, P25685 | 0.095 ± 0.21 |

| Substance | abundance fitness |
| --- | --- |
| DnaJ homolog subfamily B member 1 R59E, P25685 | 0.026 ± 0.099 |
| DnaJ homolog subfamily B member 1 R59F, P25685 | -0.045 ± 0.15 |
| DnaJ homolog subfamily B member 1 R59G, P25685 | -0.065 ± 0.084 |
| DnaJ homolog subfamily B member 1 R59H, P25685 | -0.167 ± 0.11 |
| DnaJ homolog subfamily B member 1 R59I, P25685 | -0.232 ± 0.15 |
| DnaJ homolog subfamily B member 1 R59K, P25685 | -0.104 ± 0.11 |
| DnaJ homolog subfamily B member 1 R59L, P25685 | -0.186 ± 0.099 |
| DnaJ homolog subfamily B member 1 R59M, P25685 | -0.256 ± 0.19 |
| DnaJ homolog subfamily B member 1 R59N, P25685 | -0.068 ± 0.14 |
| DnaJ homolog subfamily B member 1 R59P, P25685 | -0.4 ± 0.15 |
| DnaJ homolog subfamily B member 1 R59Q, P25685 | -0.194 ± 0.13 |
| DnaJ homolog subfamily B member 1 R59S, P25685 | -0.036 ± 0.081 |
| DnaJ homolog subfamily B member 1 R59T, P25685 | 0.07 ± 0.1 |
| DnaJ homolog subfamily B member 1 R59V, P25685 | -0.059 ± 0.071 |
| DnaJ homolog subfamily B member 1 R59W, P25685 | -0.186 ± 0.14 |
| DnaJ homolog subfamily B member 1 R61A, P25685 | -0.596 ± 0.16 |
| DnaJ homolog subfamily B member 1 R61C, P25685 | -0.325 ± 0.15 |
| DnaJ homolog subfamily B member 1 R61D, P25685 | -0.668 ± 0.18 |
| DnaJ homolog subfamily B member 1 R61E, P25685 | -0.362 ± 0.11 |
| DnaJ homolog subfamily B member 1 R61F, P25685 | -0.756 ± 0.18 |
| DnaJ homolog subfamily B member 1 R61G, P25685 | -0.406 ± 0.1 |
| DnaJ homolog subfamily B member 1 R61I, P25685 | -0.584 ± 0.13 |
| DnaJ homolog subfamily B member 1 R61K, P25685 | -0.247 ± 0.16 |
| DnaJ homolog subfamily B member 1 R61L, P25685 | -0.527 ± 0.076 |
| DnaJ homolog subfamily B member 1 R61M, P25685 | -0.495 ± 0.14 |
| DnaJ homolog subfamily B member 1 R61N, P25685 | -0.425 ± 0.1 |

| Substance | abundance fitness |
| --- | --- |
| DnaJ homolog subfamily B member 1 R61Q, P25685 | -0.336 ± 0.093 |
| DnaJ homolog subfamily B member 1 R61S, P25685 | -0.528 ± 0.068 |
| DnaJ homolog subfamily B member 1 R61V, P25685 | -0.429 ± 0.077 |
| DnaJ homolog subfamily B member 1 R61W, P25685 | -0.897 ± 0.14 |
| DnaJ homolog subfamily B member 1 R61Y, P25685 | -0.606 ± 0.13 |
| DnaJ homolog subfamily B member 1 S16A, P25685 | -0.167 ± 0.066 |
| DnaJ homolog subfamily B member 1 S16C, P25685 | -0.185 ± 0.077 |
| DnaJ homolog subfamily B member 1 S16D, P25685 | -0.174 ± 0.09 |
| DnaJ homolog subfamily B member 1 S16G, P25685 | -0.074 ± 0.055 |
| DnaJ homolog subfamily B member 1 S16H, P25685 | -0.24 ± 0.13 |
| DnaJ homolog subfamily B member 1 S16I, P25685 | -0.371 ± 0.11 |
| DnaJ homolog subfamily B member 1 S16K, P25685 | -0.188 ± 0.12 |
| DnaJ homolog subfamily B member 1 S16L, P25685 | -0.297 ± 0.053 |
| DnaJ homolog subfamily B member 1 S16M, P25685 | -0.258 ± 0.073 |
| DnaJ homolog subfamily B member 1 S16N, P25685 | -0.059 ± 0.1 |
| DnaJ homolog subfamily B member 1 S16P, P25685 | -0.123 ± 0.062 |
| DnaJ homolog subfamily B member 1 S16R, P25685 | -0.158 ± 0.065 |
| DnaJ homolog subfamily B member 1 S16T, P25685 | -0.057 ± 0.092 |
| DnaJ homolog subfamily B member 1 S16V, P25685 | -0.301 ± 0.066 |
| DnaJ homolog subfamily B member 1 S16Y, P25685 | -0.676 ± 0.073 |
| DnaJ homolog subfamily B member 1 S56A, P25685 | -0.142 ± 0.085 |
| DnaJ homolog subfamily B member 1 S56C, P25685 | 0.022 ± 0.16 |
| DnaJ homolog subfamily B member 1 S56D, P25685 | -0.551 ± 0.094 |
| DnaJ homolog subfamily B member 1 S56E, P25685 | -0.496 ± 0.079 |
| DnaJ homolog subfamily B member 1 S56F, P25685 | -0.526 ± 0.12 |
